{"source": "paper PMC4613909", "biological_target": "Artemia salina 40S ribosomal subunit (Artemia salina)", "test": "iRIA (in vitro Ribosomes Interaction Assay, microwell solid-phase binding); 40S immobilised, labeled 60S displaced by 5-fold unlabeled 60S; room temperature, 10 minutes", "data": [{"substance": "Artemia salina 60S ribosomal subunit (mature) (complex)", "values": [{"measurement": "percent displacement of labeled 60S by 5-fold unlabeled 60S", "result": 50, "unit": "%"}]}]}
